{"source": "patent US20160102129A1", "about": "(Novo Nordisk, published 2016)", "binders": {"B1": {"name": "N^ε35-[(4S)-4-carboxy-4-[[2-[2-[2-[[(4S)-4-carboxy-4-[[2-[2-[2-[[(4S)-4-carboxy-4-[[2-[2-[2-[[(4S)-4-carboxy-4-[[(4S)-4-carboxy-4-(17-carboxyheptadecanoylamino) … (peptide)", "peptide": "XXHGTFTSDYSKYLEEQAAREFIAWLLKK", "modifications": "Imp (desamino-His) at 7; Acb at 8; Lys35 N-epsilon acylated with 17-carboxyheptadecanoyl-γGlu-γGlu-Ado-γGlu-Ado-γGlu-Ado-γGlu-; C-terminal amide (GLP-1(7-37) numbering)"}, "B2": {"name": "N^ε35-[(4S)-4-carboxy-4-[[2-[2-[2-[[(4S)-4-carboxy-4-[[2-[2-[2-[[(4S)-4-carboxy-4-[[2-[2-[2-[[(4S)-4-carboxy-4-[[(4S)-4-carboxy-4-(17-carboxyheptadecanoylamino) … (peptide)", "peptide": "XXHGTFTSDYSRYLEEQAAREFIAWLLRK", "modifications": "Imp (desamino-His) at 7; Acb at 8; Lys35 N-epsilon acylated with 17-carboxyheptadecanoyl-γGlu-γGlu-Ado-γGlu-Ado-γGlu-Ado-γGlu-; C-terminal amide (GLP-1(7-37) numbering)"}, "B3": {"name": "N^ε35-[(4S)-4-carboxy-4-[[2-[2-[2-[[(4S)-4-carboxy-4-[[2-[2-[2-[[(4S)-4-carboxy-4-[[2-[2-[2-[[(4S)-4-carboxy-4-[[(4S)-4-carboxy-4-(17-carboxyheptadecanoylamino) … (peptide)", "peptide": "XXHGTFTSDYSKYLERRAAREFIAWLLKK", "modifications": "Imp (desamino-His) at 7; Acb at 8; Lys35 N-epsilon acylated with 17-carboxyheptadecanoyl-γGlu-γGlu-Ado-γGlu-Ado-γGlu-Ado-γGlu-; C-terminal amide (GLP-1(7-37) numbering)"}}, "note": "*1 amine or outer side, *2 acyl side, *3 side chain or, on linkers, in order; H or OH if unused. Where no end group is shown, it is not given here. Side-chain parts run from the residue outwards. [ ]: non-standard residue; d: D form. The star is where a group is joined. C18 diacid = O=C(O)CCCCCCCCCCCCCCCCC(=O)*; γGlu = O=C(O)[C@H](CCC(=O)[*:2])N[*:1]; Desaminohistidyl = O=C(CCc1c[nH]cn1)*; Ac4c = NC1(C(=O)O)CCC1; AEEA = NCCOCCOCC(=O)O; Aib = CC(C)(N)C(=O)O"}
{"target": "T1, human GLP-1 receptor (human, UniProt P43220 24-463)", "assay": "cell-based or functional assay", "units": {"EC50 GLP-1R [pM], CRE luciferase reporter gene assay": "pM"}}
{"binder": "[Desaminohistidyl][Aib]HGTFTSDVSRYLEEQAAREFIAWLLK([Gly-Ser-Glu-Gly-Ser-γGlu-γGlu-C18 diacid])T-NH2", "EC50 GLP-1R [pM], CRE luciferase reporter gene assay": 6}
{"binder": "B1", "EC50 GLP-1R [pM], CRE luciferase reporter gene assay": 3}
{"binder": "B2", "EC50 GLP-1R [pM], CRE luciferase reporter gene assay": 3}
{"binder": "[Desaminohistidyl][Ac4c]HGTFTSDYSKYLEEQAAREFIAWLLKK([Gly-Ser-Glu-Gly-Ser-γGlu-γGlu-C18 diacid])-NH2", "EC50 GLP-1R [pM], CRE luciferase reporter gene assay": 5.7}
{"binder": "[Desaminohistidyl][Aib]HGTFTSDVSKYLEAQAAREFIAWLLK([γGlu-γGlu-Ado-γGlu-γGlu-C18 diacid])T-NH2", "EC50 GLP-1R [pM], CRE luciferase reporter gene assay": 3}
{"binder": "B3", "EC50 GLP-1R [pM], CRE luciferase reporter gene assay": 8}
{"binder": "[Desaminohistidyl][Ac4c]HGTFTSDVSKYLEEQAAREFIAWLLKK([Gly-Ser-Glu-Gly-Ser-γGlu-γGlu-C18 diacid])-NH2", "EC50 GLP-1R [pM], CRE luciferase reporter gene assay": 2}
{"binder": "[Desaminohistidyl][Aib]HGTFTSDVSRYLEGQAAREFIAWLLK([Gly-Ser-Glu-Gly-Ser-γGlu-γGlu-C18 diacid])T-NH2", "EC50 GLP-1R [pM], CRE luciferase reporter gene assay": 17}
{"binder": "[Desaminohistidyl][Aib]HGTFTSDVSRYLEEQAARK([AEEA-AEEA-γGlu-γGlu-γGlu-C18 diacid])FIAWLLR", "EC50 GLP-1R [pM], CRE luciferase reporter gene assay": 7}
{"binder": "[Desaminohistidyl]GHGTFTSDVSRYLEEQAAREFIAWLLK([Gly-Ser-Glu-Gly-Ser-γGlu-γGlu-C18 diacid])T-NH2", "EC50 GLP-1R [pM], CRE luciferase reporter gene assay": 8}
{"binder": "[Desaminohistidyl]AHGTFTSDVSRYLEEQAARK([AEEA-AEEA-γGlu-γGlu-γGlu-C18 diacid])FIAWLLR", "EC50 GLP-1R [pM], CRE luciferase reporter gene assay": 8}
{"target": "T2, human glucagon receptor (human, UniProt P47871 26-477)", "T2 sequence (P47871 26-477)": "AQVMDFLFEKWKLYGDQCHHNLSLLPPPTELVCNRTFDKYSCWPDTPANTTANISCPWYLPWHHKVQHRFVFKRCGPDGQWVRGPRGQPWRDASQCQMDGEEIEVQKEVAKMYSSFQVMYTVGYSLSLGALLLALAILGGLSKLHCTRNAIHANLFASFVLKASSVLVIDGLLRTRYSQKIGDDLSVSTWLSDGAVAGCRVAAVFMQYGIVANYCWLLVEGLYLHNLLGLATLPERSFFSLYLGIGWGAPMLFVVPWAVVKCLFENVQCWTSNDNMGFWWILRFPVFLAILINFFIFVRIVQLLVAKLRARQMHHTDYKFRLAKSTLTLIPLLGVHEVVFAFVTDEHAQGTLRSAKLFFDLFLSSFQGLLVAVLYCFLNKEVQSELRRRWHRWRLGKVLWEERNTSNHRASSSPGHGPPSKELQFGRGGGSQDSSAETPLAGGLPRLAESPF", "assay": "cell-based or functional assay", "units": {"EC50 GlucagonR [pM], CRE luciferase reporter gene assay": "pM"}}
{"binder": "[Desaminohistidyl][Aib]HGTFTSDVSRYLEEQAAREFIAWLLK([Gly-Ser-Glu-Gly-Ser-γGlu-γGlu-C18 diacid])T-NH2", "EC50 GlucagonR [pM], CRE luciferase reporter gene assay": 60}
{"binder": "B1", "EC50 GlucagonR [pM], CRE luciferase reporter gene assay": 78}
{"binder": "B2", "EC50 GlucagonR [pM], CRE luciferase reporter gene assay": 71}
{"binder": "[Desaminohistidyl][Ac4c]HGTFTSDYSKYLEEQAAREFIAWLLKK([Gly-Ser-Glu-Gly-Ser-γGlu-γGlu-C18 diacid])-NH2", "EC50 GlucagonR [pM], CRE luciferase reporter gene assay": 117}
{"binder": "[Desaminohistidyl][Aib]HGTFTSDVSKYLEAQAAREFIAWLLK([γGlu-γGlu-Ado-γGlu-γGlu-C18 diacid])T-NH2", "EC50 GlucagonR [pM], CRE luciferase reporter gene assay": 21}
{"binder": "B3", "EC50 GlucagonR [pM], CRE luciferase reporter gene assay": 54}
{"binder": "[Desaminohistidyl][Ac4c]HGTFTSDVSKYLEEQAAREFIAWLLKK([Gly-Ser-Glu-Gly-Ser-γGlu-γGlu-C18 diacid])-NH2", "EC50 GlucagonR [pM], CRE luciferase reporter gene assay": 163}
{"binder": "[Desaminohistidyl][Aib]HGTFTSDVSRYLEGQAAREFIAWLLK([Gly-Ser-Glu-Gly-Ser-γGlu-γGlu-C18 diacid])T-NH2", "EC50 GlucagonR [pM], CRE luciferase reporter gene assay": 143}
{"binder": "[Desaminohistidyl][Aib]HGTFTSDVSRYLEEQAARK([AEEA-AEEA-γGlu-γGlu-γGlu-C18 diacid])FIAWLLR", "EC50 GlucagonR [pM], CRE luciferase reporter gene assay": 143}
{"binder": "[Desaminohistidyl]GHGTFTSDVSRYLEEQAAREFIAWLLK([Gly-Ser-Glu-Gly-Ser-γGlu-γGlu-C18 diacid])T-NH2", "EC50 GlucagonR [pM], CRE luciferase reporter gene assay": 459}
{"binder": "[Desaminohistidyl]AHGTFTSDVSRYLEEQAARK([AEEA-AEEA-γGlu-γGlu-γGlu-C18 diacid])FIAWLLR", "EC50 GlucagonR [pM], CRE luciferase reporter gene assay": 1290}
{"target": "T1, human GLP-1 receptor", "assay": "SPA displacement of [125I]GLP-1(7-36)NH2 from hGLP-1R BHK membranes", "description": "The GLP-1 receptor binding of each derivatives were determined with competitive binding, displacing [¹²⁵I]GLP-1 bound to GLP-1 receptors expressed in cell membranes associated with wheat germ agglutinin (WGA) scintillation proximity assay (SPA) beads. Each derivative was added in a series of concentrations to isolated membranes comprising the human GLP-1 receptor and displacement of the labelled radioligand was monitored. The receptor binding was reported as the concentration at which half of the labelled ligand is displaced from the receptor, the IC⁵⁰ value.\n1. For the receptor binding assay 50 μl of the assay buffer was added to each well of an assay plate. [0588] 2. Test compounds were serially diluted to give the following concentrations: 8×10EE-7 M, 8×10EE-8 M, 8×10EE-9 M, 8×10EE-10 M, 8×10EE-11 M, 8×10EE-12 M and 8×10EE-13 M. Twenty-five μl were added to appropriate wells in the assay plate. [0589] 3. Cell membrane aliquots were thawed and diluted to their working concentration. Fifty μl were added to each well in the assay plate. [0590] 4. WGA SPA beads were suspended in assay buffer at 20 mg/ml. The suspension was diluted to 10 mg/ml in assay buffer just prior to addition to the assay plate. Fifty μl were added to each well in the assay plate. [0591] 5. […] A 25 μl aliquot was reserved for measuring total counts/well. [0592] 6. The assay plate was incubated for 2 h at 30° C. [0593] 7. The assay plate was centrifuged for 10 min. [0594] 8. The assay plate was read in a Perkin Elmer TopCount NXT instrument.", "units": {"IC50": "nM"}}
{"binder": "[Desaminohistidyl][Aib]HGTFTSDVSRYLEEQAAREFIAWLLK([Gly-Ser-Glu-Gly-Ser-γGlu-γGlu-C18 diacid])T-NH2", "IC50": 0.5}
{"binder": "B1", "IC50": 1.4}
{"binder": "B2", "IC50": 0.9}
{"binder": "[Desaminohistidyl][Ac4c]HGTFTSDYSKYLEEQAAREFIAWLLKK([Gly-Ser-Glu-Gly-Ser-γGlu-γGlu-C18 diacid])-NH2", "IC50": 0.7}
{"binder": "[Desaminohistidyl][Aib]HGTFTSDVSKYLEAQAAREFIAWLLK([γGlu-γGlu-Ado-γGlu-γGlu-C18 diacid])T-NH2", "IC50": 0.6}
{"binder": "B3", "IC50": 1.8}
{"binder": "[Desaminohistidyl][Ac4c]HGTFTSDVSKYLEEQAAREFIAWLLKK([Gly-Ser-Glu-Gly-Ser-γGlu-γGlu-C18 diacid])-NH2", "IC50": 0.1}
{"binder": "[Desaminohistidyl][Aib]HGTFTSDVSRYLEGQAAREFIAWLLK([Gly-Ser-Glu-Gly-Ser-γGlu-γGlu-C18 diacid])T-NH2", "IC50": 0.9}
{"binder": "[Desaminohistidyl][Aib]HGTFTSDVSRYLEEQAARK([AEEA-AEEA-γGlu-γGlu-γGlu-C18 diacid])FIAWLLR", "IC50": 2.9}
{"binder": "[Desaminohistidyl]GHGTFTSDVSRYLEEQAAREFIAWLLK([Gly-Ser-Glu-Gly-Ser-γGlu-γGlu-C18 diacid])T-NH2", "IC50": 3.2}
{"binder": "[Desaminohistidyl]AHGTFTSDVSRYLEEQAARK([AEEA-AEEA-γGlu-γGlu-γGlu-C18 diacid])FIAWLLR", "IC50": 2.2}
{"target": "T2, human glucagon receptor", "assay": "SPA displacement of [125I]-glucagon from human glucagon receptor BHK membranes", "description": "1. For the receptor binding assay 50 μl of the assay buffer was added to each well of an assay plate. [0603] 2. Test compounds were serially diluted to give the following concentrations: 8×10EE-7 M, 8×10EE-8 M, 8×10EE-9 M, 8×10EE-10 M, 8×10EE-11 M, 8×10EE-12 M and 8×10EE-13 M. Twenty-five μl were added to appropriate wells in the assay plate. [0604] 3. Cell membrane aliquots were thawed and diluted to their working concentration. Fifty μl were added to each well in the assay plate. [0605] 4. WGA SPA beads were suspended in assay buffer at 20 mg/ml. The suspension was diluted to 10 mg/ml in assay buffer just prior to addition to the assay plate. Fifty μl were added to each well in the assay plate. [0606] 5. […] A 25 μl aliquot was reserved for measuring total counts/well. […] 6. The assay plate was incubated for 2 h at 25° C. [0608] 7. The assay plate was centrifuged for 10 min at 1500 rpm. [0609] 8. The assay plate was read in a Perkin Elmer TopCount NXT instrument.", "units": {"IC50": "nM"}}
{"binder": "[Desaminohistidyl][Aib]HGTFTSDVSRYLEEQAAREFIAWLLK([Gly-Ser-Glu-Gly-Ser-γGlu-γGlu-C18 diacid])T-NH2", "IC50": 3.8}
{"binder": "B1", "IC50": 6.9}
{"binder": "B2", "IC50": 5.6}
{"binder": "[Desaminohistidyl][Ac4c]HGTFTSDYSKYLEEQAAREFIAWLLKK([Gly-Ser-Glu-Gly-Ser-γGlu-γGlu-C18 diacid])-NH2", "IC50": 16}
{"binder": "[Desaminohistidyl][Aib]HGTFTSDVSKYLEAQAAREFIAWLLK([γGlu-γGlu-Ado-γGlu-γGlu-C18 diacid])T-NH2", "IC50": 1.7}
{"binder": "B3", "IC50": 8.6}
{"binder": "[Desaminohistidyl][Ac4c]HGTFTSDVSKYLEEQAAREFIAWLLKK([Gly-Ser-Glu-Gly-Ser-γGlu-γGlu-C18 diacid])-NH2", "IC50": 43.9}
{"binder": "[Desaminohistidyl][Aib]HGTFTSDVSRYLEGQAAREFIAWLLK([Gly-Ser-Glu-Gly-Ser-γGlu-γGlu-C18 diacid])T-NH2", "IC50": 8.9}
{"binder": "[Desaminohistidyl][Aib]HGTFTSDVSRYLEEQAARK([AEEA-AEEA-γGlu-γGlu-γGlu-C18 diacid])FIAWLLR", "IC50": 21.2}
{"binder": "[Desaminohistidyl]GHGTFTSDVSRYLEEQAAREFIAWLLK([Gly-Ser-Glu-Gly-Ser-γGlu-γGlu-C18 diacid])T-NH2", "IC50": 9.6}
{"binder": "[Desaminohistidyl]AHGTFTSDVSRYLEEQAARK([AEEA-AEEA-γGlu-γGlu-γGlu-C18 diacid])FIAWLLR", "IC50": 126}
